US20240082346A1 (MAINLINE BIOSCIENCES SHANGHAI, published 2024)
Bridge positions count the residues as written; N and C are the ends. Square brackets hold non-standard residues; d marks the D form. * marks the point of attachment. 2Nal = N[C@@H](Cc1ccc2ccccc2c1)C(=O)O; Lys(iPr) = CC(C)NCCCC[C@H](N)C(=O)O; Palmitoyl = CCCCCCCCCCCCCCCC(=O)*; Lauroyl = CCCCCCCCCCCC(=O)*; hCys = N[C@@H](CCS)C(=O)O; PhAc = O=C(Cc1ccccc1)*; Bz = O=C(c1ccccc1)*; Mpa = O=C(O)CCS; iPr = CC(C)*

B1: cyclo[Mpa-Tyr-Lys(iPr)-(D-Arg)-2Nal-Gly-Cys]-Lys(iPr)-Gly-NH(Et) (peptide)
peptide: [Mpa]YK(iPr)[dR][2Nal]GCK(iPr)G-NHEt
modifications: disulfide 1-7; also: acetate salt
notes: Acetate salt; also called MLB-014
B2: Benzoyl-cyclo[Cys-Tyr-Lys(iPr)-(D-Arg)-2Nal-Gly-Cys]-Lys(iPr)-Gly-NH2 (peptide)
peptide: Bz-CYK(iPr)[dR][2Nal]GCK(iPr)G-NH2
modifications: disulfide 1-7; also: acetate salt
notes: Acetate salt; also called MLB-023
B3: MLB-030 (compound of Example 20; structure given only as drawing CHEM-US-00013) (peptide)
peptide: Bz-CYK(iPr)[dR][2Nal]GCK(iPr)G-NH2
modifications: linker 1-7 via 1,2‑bis(methylene)benzene; also: acetate salt
notes: Acetate salt
B4: cyclo[Mpa-Tyr-Lys(iPr)-(D-Arg)-2Nal-Gly-Cys]-Lys(iPr)-Lys(palmitoyl)-NH(Et) (peptide)
peptide: [Mpa]YK(iPr)[dR][2Nal]GCK(iPr)K(Palmitoyl)-NHEt
modifications: disulfide 1-7; also: acetate salt
notes: Acetate salt; also called MLB-029
B5: MLB-032 (compound of Example 22; structure given only as drawing CHEM-US-00015) (peptide)
peptide: Ac-CYK(iPr)[dR][2Nal]GCK(iPr)G-NH2
modifications: linker 1-7 via 1,2‑bis(methylene)benzene; also: acetate salt
notes: Acetate salt
B6: Benzoyl-cyclo[Cys-Tyr-Lys(iPr)-(D-Arg)-2Nal-Gly-hCys]-Lys(iPr)-Gly-NH2 (peptide)
peptide: Bz-CYK(iPr)[dR][2Nal]G[hCys]K(iPr)G-NH2
modifications: disulfide 1-7; also: acetate salt
notes: Acetate salt; also called MLB-022
B7: cyclo[Mpa-Tyr-Lys(iPr)-(D-Arg)-2Nal-Gly-Cys]-Lys(iPr)-Lys(Ac)-NH(Et) (peptide)
peptide: [Mpa]YK(iPr)[dR][2Nal]GCK(iPr)K(Ac)-NHEt
modifications: disulfide 1-7; also: acetate salt
notes: Acetate salt; also called MLB-027
B8: MLB-033 (compound of Example 23; structure given only as drawing CHEM-US-00016) (peptide)
peptide: Ac-CYK(iPr)[dR][2Nal]GCK(iPr)G-NH2
modifications: linker 1-7 via 1,3‑bis(methylene)benzene; also: acetate salt
notes: Acetate salt
B9: cyclo[Mpa-Tyr-Lys(iPr)-(D-Arg)-2Nal-Gly-Cys]-Lys(iPr)-Lys(lauroyl)-NH(Et) (peptide)
peptide: [Mpa]YK(iPr)[dR][2Nal]GCK(iPr)K(Lauroyl)-NHEt
modifications: disulfide 1-7; also: acetate salt
notes: Acetate salt; also called MLB-028
B10: Benzoyl-cyclo[hCys-Tyr-Lys(iPr)-(D-Arg)-2Nal-Gly-Cys]-Lys(iPr)-Gly-NH(Et) (peptide)
peptide: Bz-[hCys]YK(iPr)[dR][2Nal]GCK(iPr)G-NHEt
modifications: disulfide 1-7; also: acetate salt
notes: Acetate salt; also called MLB-024
B11: Phenylacetyl-cyclo[hCys-Tyr-Lys(iPr)-(D-Arg)-2Nal-Gly-Cys]-Lys(iPr)-Gly-NH2 (peptide)
peptide: PhAc-[hCys]YK(iPr)[dR][2Nal]GCK(iPr)G-NH2
modifications: disulfide 1-7; also: acetate salt
notes: also called MLB-025
B12: Benzoyl-cyclo[hCys-Tyr-Lys(iPr)-(D-Arg)-2Nal-Gly-Cys]-Lys(iPr)-Gly-NH2 (peptide)
peptide: Bz-[hCys]YK(iPr)[dR][2Nal]GCK(iPr)G-NH2
modifications: disulfide 1-7; also: acetate salt
notes: Acetate salt; also called MLB-021
B13: Ac-cyclo[hCys-Tyr-Lys(iPr)-(D-Arg)-2Nal-Gly-Cys]-Lys(iPr)-Gly-NH2 (peptide)
peptide: Ac-[hCys]YK(iPr)[dR][2Nal]GCK(iPr)G-NH2
modifications: disulfide 1-7; also: acetate salt
notes: Acetate salt; also called MLB-010
B14: cyclo[Mpa-Tyr-Lys(iPr)-(D-Arg)-2Nal-Gly-Cys]-(D-Arg)-Gly-(D-Phe)-Gly-NH2 (peptide)
peptide: [Mpa]YK(iPr)[dR][2Nal]GC[dR]G[dF]G-NH2
modifications: disulfide 1-7; also: acetate salt
notes: also called MLB-004
B15: cyclo[Mpa-Tyr-Lys(iPr)-(D-Arg)-2Nal-Gly-Cys]-Arg-Gly-(D-Phe)-Gly-NH2 (peptide)
peptide: [Mpa]YK(iPr)[dR][2Nal]GCRG[dF]G-NH2
modifications: disulfide 1-7; also: acetate salt
notes: Acetate salt; also called MLB-002
B16: cyclo[Mpa-Tyr-Arg-(D-Arg)-2Nal-Gly-Cys]-Arg-Gly-(D-Phe)-Gly-NH2 (peptide)
peptide: [Mpa]YR[dR][2Nal]GCRG[dF]G-NH2
modifications: disulfide 1-7; also: acetate salt
notes: Acetate salt; also called MLB-001
B17: Ac-cyclo[hCys-Tyr-Lys(iPr)-(D-Arg)-2Nal-Gly-Cys]-Lys(iPr)-Gly-NH(Et) (peptide)
peptide: Ac-[hCys]YK(iPr)[dR][2Nal]GCK(iPr)G-NHEt
modifications: disulfide 1-7; also: acetate salt
notes: Acetate salt; also called MLB-026
B18: cyclo[Mpa-Arg-Tyr-Arg-2Nal-Gly-Cys]-Arg-Gly-(D-Phe)-Gly-NH2 (peptide)
peptide: [Mpa]RYR[2Nal]GCRG[dF]G-NH2
modifications: disulfide 1-7; also: acetate salt
notes: Acetate salt; also called MLB-011

Biological target: T1, Human chemokine receptor CXCR4 (human, UniProt P61073 1-352)
T1 construct: whole, on cells; Membranes of Chem-1 cells expressing human CXCR4 (0.5 ug membrane protein per aliquot); also called C-X-C chemokine receptor type 4; fusin
T1 sequence (P61073 whole entry): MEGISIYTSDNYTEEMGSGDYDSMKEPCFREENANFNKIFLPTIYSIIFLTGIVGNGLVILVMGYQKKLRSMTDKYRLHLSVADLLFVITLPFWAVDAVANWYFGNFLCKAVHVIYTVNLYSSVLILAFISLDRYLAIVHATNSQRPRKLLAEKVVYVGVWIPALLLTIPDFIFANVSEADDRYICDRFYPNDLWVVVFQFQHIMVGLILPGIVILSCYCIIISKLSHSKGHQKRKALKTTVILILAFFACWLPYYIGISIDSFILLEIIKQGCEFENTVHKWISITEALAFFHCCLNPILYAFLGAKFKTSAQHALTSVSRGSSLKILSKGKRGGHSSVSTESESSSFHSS
Assay: displacement of [125I]SDF-1α (0.03 nM) from membranes of Chem-1 cells expressing human CXCR4
Experimental: Human CXCR4/¹²⁵I-SDF-1α Binding Inhibition Assay: Human chemokine receptor CXCR4 expressed in Chem-1 cells were used in modified HEPES buffer pH 7.4. A 0.5 μg (Membrane protein may change from lot to lot, the concentration used were adjusted as necessary), aliquot was incubated with 0.03 nM [¹²⁵I]SDF-1α for 90 minutes at 25° C. Non-specific binding was estimated in the presence of 30 nM SDF-la. Membranes were filtered and washed, filters were then counted to determine [¹²⁵I]SDF-1α specifically bound. Compounds were screened starting at 10 μM with 11-point dilutions (Valenzuela-Fernandez A, et al. J Biol Chem. 277(18):15677, 2002).

Q: Which results are given for “[Mpa]Y[Lys(iPr)][dR][2Nal]GC[Lys(iPr)]G[2Nal]G-NH2 (disulfide 1-7)”?
A: Binding Kb: 0.29 nM; IC50: 0.95 nM

Q: With B1 as the molecule, how does the “Binding Kb” value read?
A: 0.19 nM

Q: What about the IC50 of the same molecule?
A: 0.64 nM

Q: For B2, which “Binding Kb” value is on record?
A: 1 nM

Q: What about the IC50 of the same molecule?
A: 3.4 nM

Q: B3 was tested. Which “Binding Kb” value did it give?
A: 0.39 nM

Q: And the IC50?
A: 1.3 nM

Q: What does the source list for B4?
A: Binding Kb: 3.2 nM; IC50: 11 nM

Q: B5 was tested. Which “Binding Kb” value did it give?
A: 0.12 nM

Q: And the IC50?
A: 0.4 nM

Q: How did the “Binding Kb” value turn out when B6 was run?
A: 0.21 nM

Q: And the IC50?
A: 0.71 nM

Q: What does the source list for B7?
A: Binding Kb: 0.15 nM; IC50: 0.48 nM

Q: For B8, which “Binding Kb” value is on record?
A: 0.99 nM

Q: And the IC50?
A: 3.3 nM

Q: B9 was tested. Which “Binding Kb” value did it give?
A: 2.5 nM

Q: What about the IC50 of the same molecule?
A: 8.2 nM

Q: Which “Binding Kb” value does the source give for B10 here?
A: 0.39 nM

Q: And the IC50?
A: 1.3 nM

Q: How did the “Binding Kb” value turn out when B11 was run?
A: 0.25 nM

Q: What about the IC50 of the same molecule?
A: 0.84 nM

Q: With B12 as the molecule, how does the “Binding Kb” value read?
A: 0.13 nM

Q: What about the IC50 of the same molecule?
A: 0.42 nM

Q: B13 was tested. Which “Binding Kb” value did it give?
A: 0.17 nM

Q: What about the IC50 of the same molecule?
A: 0.56 nM

Q: With B14 as the molecule, how does the “Binding Kb” value read?
A: 0.21 nM

Q: What about the IC50 of the same molecule?
A: 0.7 nM

Q: How did the “Binding Kb” value turn out when B15 was run?
A: 0.28 nM

Q: What about the IC50 of the same molecule?
A: 0.92 nM

Q: Which results are given for B16?
A: Binding Kb: 7.3 nM; IC50: 24 nM

Q: Which “Binding Kb” value does the source give for B17 here?
A: 0.27 nM

Q: And the IC50?
A: 0.89 nM

Q: Which “Binding Kb” value does the source give for B18 here?
A: > 1000 nM
